B1: MICB*02 α1α2-platform domain (MICBpf) (domain or fragment)
chain: EPHSLRYNLMVLSQDESVQSGFLAEGHLDGQPFLRYDRQKRRAKPQGQWAEDVLGAETWDTETEDLTENGQDLRRTLTHIKDQKGGLHSLQEIRVCEIHEDSSTRGSRHFYYNGELFLSQNLETQESTVPQSSRAQTLAMNVTNFWKEDAMKTKTHYRAMQADCLQKLQRYLKSGVAIRRT
B2: UL16 ectodomain, monomeric, untagged (domain or fragment)
chain: VDLGSKSSNSTCRLNVTELASIHPGETWTLHGMCISICYYENVTEDEIIGVAFTWQHNESVVDLWLYQNDTVIRNFSDITTNILQDGLKMRTVPVTKLYTSRMVTNLTVGRYDCLRCENGTTKIIERLYVRLGSLYPRPPGSGLAKHPSVSADEELSA
modifications: N-linked glycans; N-acetylglucosamine seen at asparagines 35, 41, 68, 84, 95, 101 and 132 in the crystal (after EndoH)
notes: UL16 of human cytomegalovirus, ectodomain residues 27-184; the cDNA construct also held the N-terminal signal peptide (residues 1-26), then a thrombin cleavage site and human IgG1-Fc; Residues of the thrombin site may remain at the C-terminus after cleavage; For the crystal the complex was partly deglycosylated with EndoH after complex formation; for SPR the glycosylated protein was used; also …

Assays:
[1] = molecular target: B2; assay: SPR; MICBpf or MICB α1-α3 covalently immobilised on a CM5 chip by amine coupling; untagged monomeric UL16 as analyte, 50 µl/min; kinetic fit (1:1 binding with mass transfer) and equilibrium fit (1:1 Langmuir isotherm); chip not regenerated; conditions: both partners purified
[2] = molecular target: T1, MICB*02 α1α2-platform domain (MICBpf) (human); assay: SPR; kinetic fit
T1 chain: B1 chain

[3] = molecular target: T2, MICB*02 ectodomain (domains α1, α2 and α3) (human, UniProt Q29980 23-298); assay: SPR; kinetic fit
T2 chain: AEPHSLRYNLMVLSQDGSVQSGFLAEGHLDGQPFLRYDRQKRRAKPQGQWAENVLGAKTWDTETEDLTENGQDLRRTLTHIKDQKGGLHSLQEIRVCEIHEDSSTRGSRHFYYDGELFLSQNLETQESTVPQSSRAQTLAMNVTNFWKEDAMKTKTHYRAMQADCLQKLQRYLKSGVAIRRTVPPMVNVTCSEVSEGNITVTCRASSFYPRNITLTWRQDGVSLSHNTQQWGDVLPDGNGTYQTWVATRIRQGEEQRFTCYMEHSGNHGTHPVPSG

Fc-tagged ULBP2 = molecular target: T3, Fc-tagged ULBP2 (human, UniProt Q9BZM5 26-217); assay: SPR; Fc-tagged ULBP ligands captured on a Protein A-G CM5 chip, diluted in HBS-EP pH 7.4 at 25°C; untagged monomeric UL16 as analyte, 50 µl/min; regeneration with 10 mM glycine pH 1.7; conditions: both partners purified
T3 construct: ULBP2 (RAET1H), human NKG2D ligand; Captured by its Fc on a Protein A-G chip; also called RAET1H; source: bought: R&D Systems
T3 sequence: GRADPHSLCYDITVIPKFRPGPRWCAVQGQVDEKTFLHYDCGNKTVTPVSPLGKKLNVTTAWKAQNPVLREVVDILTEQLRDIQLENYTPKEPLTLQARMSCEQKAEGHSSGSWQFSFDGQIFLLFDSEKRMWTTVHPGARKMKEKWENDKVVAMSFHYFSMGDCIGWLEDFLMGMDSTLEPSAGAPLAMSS

Fc-tagged ULBP1 = molecular target: T4, Fc-tagged ULBP1 (human, UniProt Q9BZM6 26-216); assay: as above; conditions: both partners purified
T4 construct: ULBP1 (RAET1I), human NKG2D ligand; Captured by its Fc on a Protein A-G chip; also called RAET1I; source: bought: R&D Systems
T4 sequence: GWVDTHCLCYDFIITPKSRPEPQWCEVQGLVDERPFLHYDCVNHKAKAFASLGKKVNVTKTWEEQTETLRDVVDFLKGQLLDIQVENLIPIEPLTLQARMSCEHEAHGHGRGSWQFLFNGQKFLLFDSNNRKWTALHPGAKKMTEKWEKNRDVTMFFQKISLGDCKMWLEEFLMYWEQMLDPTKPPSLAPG

[4] = molecular target: T5, MICB*02 ectodomain (domains α1, α2 and α3) (human, UniProt Q29980 23-298); assay: SPR; MICBpf or MICB α1-α3 covalently immobilised on a CM5 chip by amine coupling; untagged monomeric UL16 as analyte, 50 µl/min; kinetic fit (1:1 binding with mass transfer) and equilibrium fit (1:1 Langmuir isotherm); chip not regenerated; conditions: both partners purified
T5 construct: also called complete MICB ectodomain; MICBα1α3
T5 sequence: T2 chain

Binder | Kd [1] [nM] | koff [2] [s⁻¹] | koff [3] [s⁻¹] | binding result (Fc-tagged ULBP2) | Kd (Fc-tagged ULBP1) [nM] | Kd [4] [nM]
B1 | 66 |  |  |  |  | 
B2 |  | 0.054 | 0.045 | binds | 12 | 67

— paper PMC2797645, “Structure of the HCMV UL16-MICB Complex Elucidates Select Binding of a Viral Immunoevasin to Diverse NKG2D Ligands” (PLoS Pathogens, 2010)
